Experimental data taken from the DeepSol protein solubility set.

Assay: soluble on expression in E. coli; label from the status in PepcDB or PDB records

Sequence | soluble on expression in E. coli
MSLFTFKKGLHLPYNKEFTKDKSIEIFKPKKELIFPLSQHIGAPCEPIVEVGQKVLVNEKIADSSAFVSSPIHSSVSGTIKDIREIQSINGSNTQAIIIENDSKYEKYPKENLKYSSKLSLKDVVKLVKDYGIVGLGGATFPCHVKLNVKEDKEIKYIIINAAECEPYLTCDHRVMLEYTEEIIGGLRILLELFPKALIYIGIEDNKLNAIDKFKSILGEDNKIKVMPLKSKYPQGSEKHLIYALTKLQVPSGKLPLDIGCIAFNVSTIYQLYASLINGLPLTERIITVTGDSIRSPKNLRVKIGTQVKDIIEFCGGFINKPNKIILGGPMMGTSVNSLDLPITKGTSGILCLSKVDTSPNSHCIRCGKCLNSCPMNLIPQKLNELALKDKFDEFEFLGGMDCLECGCCTFSCPAKISIVNNIRNAKKSLRNKSKNLEHHHHHH | soluble
MSLGDPGLKFQEYILQHIEPSKSYEIAICQSIGRRGKMEDTVVVDCSSIEGTDIIGVFDGHNGKDAAYLCTEQYIKTFKENEGTFEAKLIKTHKQLHDKSCETSKSGTTSTVAFIDKDTIRIAYCGDSPAYIYKNNKIKKITKEHKATNSAEVERIEMNGGVVFGMFGVKRVNGQIMVTRSIGDPSLHPPLTTEPDFIKLEKKGIELLFLMSDGITDGVTEKELEDIISKSGGMFNIAFDTLKLAYVNESSDNLTFIVIKINEGHHHHHH | soluble
MSLGDVEEWVNPDQSTSQPVTKAALVEKTVAMTEAGKFASFFQEGELETIQKLRVSGPLDASDIDAIRYQMPRLEVLDMKEVELIESDKTYGAEDHREHYKLKKGVITPKMLQCFSLLVTLVLPKDITEIEDYGIYGNKNLVSIEIPVTVKKVGAHVFKSCSSLQKVDLPNVETLGERVFESCGKLTKVTLSPDLQVIPDYAFQYCGSLADVPLPSSLVSIGVSAFRDCSSLVDVPLPSSLVSIGTGAFANCKSLTSVDMPNTVTTLENGTYQNCTNLKDVKLSDNLKRIGAENDHYSGSSFEGCQNLASIDIPASVSWINSFSFKNCVNLKTVTFHEGLQVIGGKSFQGCSSLVSVSIPKSVTSIGDESFEYCSSLNEMNLSQEGTPEINSSAFAYSGLSSITIPETVTSVGGGILNGCSRLTSIFWECNRDVPNIIDLNSTSCLLYLSHDVKCPSTWKNVIEPGGVAQTIVLKNEKRYLCPKAFTANKISYTREFTMKTIPGKAAGWQTIILPFSVQTITDKDGNRLAPFMAEGDGIWKRFWLRELQADGTYKDVTAIEANKPYLIAMPNAEEYASEYCISGNVTFEADNVSLGETPEIVPTDGGAYSMYGTYDWVTGTRKVYALNLDNWSDGSVYYEKGSVFVPSLRDVAPFECYLQNNNPSASTRGFIGIVGSHASTRAGEGHHHHHH | soluble
MSLGEGFPSFEEMVEKELEGYSGFRFLDRGIYAKQLEQWFRFFPKKQFLILKSENFFEDPAKEFRKVICFLNLPVWELPEYANVNWKVLARSKRVERYQKINKETRERLLYYFKPFNDQLYALINKNFGWKEGHHHHHH | not soluble
MSLGFIDAQREHFGVESICKALQVAPSGYWRRAARRSNPALLPARAKGDAELVPQIERVWTSNLQVYGYRKVWRQMLREGTAVARCTVERLMRLKGLQGARRGKKILTTVPDAKAPCPLDRVNRQFKADKPNQLWVSDFTYVSTWQGMVYVAFVVDVYARFIVGWRVSRSMRTDFVLDALEQALYARKPERDGALIHHSDRGLQYVSIRYSERLAEAGIEPSVGSKGDSYDNALAETINGLYKTELIHRRAPWKSKEAVELATLEWVSWFNHHRLMESLGYIPPAEAEANYHWQLAGQAMSVEGHHHHHH | not soluble
MSLGGEVRGPVAVADFAKHVAQLHADGDIGFSKEYEAIQGEALNDEYPSENSQHPENKGKNRYLNVIAYDHSRVHLRQVPGQKKHLDYINANFIDGYQKPRAFIGTQGPLPGTFDCFWRMVWEQRVAVIVMITNLVERGRRKCDMYWPKDGTETYGIIQVRLVKEDVMATYTVRTLHIKHLKMKKKKQSQMEKTVYQYHYTNWPDHGTPDHPLPVINFVKKSTTANLPDGGPIVVHSSAGVGRTGTFIVLDAMLKQIEAKGSLNVFGFLRYIRAQRNYLVQTEEQYIFIHDALVEAITSGETNEGHHHHHH | soluble
MSLGILEDKKRARIFYRYFSKIYDYINPIFYSDKMRKTVVDMADIDAESLVLEVGCGTGFTTEEIVRRIGEERVVAVDITPEQMMKARAKMGGVNYFLGDAENLPFKDNSFDAAISAGSIEYWPNPQRGIEEMARVTKSGGKVVILAPRKPDNFAVRKFAESIMLFPSTQQCVYWFMKAGLEDIRFVETGPYRFWSKLVVIISGTVPEGHHHHHH | soluble
MSLGITRVVLADDHAVVRAGLRTALAALPDCEVVSEAATGPQLLAVLAQHHPDLLVVDVAMPDFDPIATIRQIHADYPAMKILVVSAYDDQSYVVGLLAAGVNGYHLKDQPLSDLQLAVQRIMAGGNWISSPLLSRLIQAAPQIAHSSPITLTKRQRDLLRLIAQGYDNRRMAQEMDLSIKTIENHLTALYRTIRVSSRLEAYQFALRHPELLAESGHEAALSREPSTSPAPLMVMIIDDNERYRAQLKRMIGKACAESQIYEAEDCHEATRLLRQITPDLVFVDVILQDGDGIQCLRRLKSVSPHTRVILISAYPDREFRRLGLEAGALAFLDKKDLDAATVRQVVEDTLRREGHHHHHH | soluble
MSLGKEGLERLVYMVDRSDSLSLLQERIDSIEVVAPQVFSFTLEGTVYGEVDPRIIALAKERGKKLMPLVMNENFEKEKIKAFLANPKAQERLIGSLIKIALKEGFGGWQLDFEHLGITSKEAYTQLVRQLYARLKEHHLSLSIAVVPPRGEEPKNAYGAKVFEDWVSPYDLKALAEHSDFLTLMAYDQHTGGSTPGPIASRAWVEGIIQEALIWVPKEKLSLGIPLYSRLWHAGIKEEKMRGVAKSLTFAGAMDWLERQGAETLWLERDGVKWAMGERGGVKEYLFMEEARSLALKVELAKRYGLRGISLWRLGQEDPRIWDELEGHHHHHH | soluble
MSLGKLLFVDIGGTLLDYSNEVPRSAVDAIRKARAKGHRVYLSSGRSSAEVTSQLWDIGVDGLIGANGGYVESAQESVFHRRLSGEETRHIVEWLYNRGLEFYLESNNGLYASRGFREASKPVLSRLSEKTDVTVDSMYPDMFWGASLDRDDVNKISYIFNSQEDLDAAREAFPNLEHTTWGGQTGALFGTIGVSVNKKIGVDRLLKYLNADRANTIAFGDSDEDLSLFEASAYGVAMGEATESLKAAADLVTDAVGQDGLRNAFLKLELIDAEGHHHHHH | soluble
MSLGKTLLVDSKGLILDGKHIIPVMGEIHYSRVPESEWRREIRKMKAGGINIISTYIFWIHHEPEEGKWNWSGNHNLRRFVRICAEENVMLVLRLGPFCHGEVYQGGIPSWVHEKAGQNPKYKIRARTPGFLEDCTELYNTIFAQVNGLLWKDGGPVVGVQIENESRGPWDYLEALKNIAVKAGFDVPFYTRTGWPALRGKEVFGQLLPLYGDYADGFWDRKLEDMPGSYADAFIMRDKRMSSAIATETFSKEELSEDSPSLSSKLSYPYFTCELGGGMMPAYHRRININGKELKPLVICKLGSGSNLPGYYMYHGGTNPYNPLHTMGETQSSPGTNHNDLPHMTYDFQAPLGEVGQVFETPFHEGRFIHQMLTDWGSELLQMNVDSLSRHYARRGAFEFYNDYVRIKNESGTSHVTFKDYRTEGATIDWTTVEPFCKVDGLIYFIEIRGKKPQISVDGKVYTCKLNKEGHHHHHH | not soluble
MSLGLTPHAPSPLADRLRPQSLDEVVGQQHLLGPEGPIGRMAAARRLASMILWGPPGTGKTTIARLLAKAGGYEFMQISAVFSGVADLKKAFEQARARRMAGQSTLLFVDEIHRFNRAQQDGFLPFVEEGIVTLVGATTENPSFELNGALLSRCQVFVLKRLTEESLELLLQRAEAAENRPLPIDAEARSALVAMADGDGRYLLTLAETLFSIGTDTPLNPTQLGQFLQKRRPAYDKDREEHYNLISALHKSVRGSDPDAALYWLARMLEGGEDPLFIARRLVRMASEDIGAADPLSLLLTTAAKDAYDFLGSPEGELALAQAVVHMASAPKSNAVYTAYKAARRAAKETGSLMPPSHILNAPTKLMKSLGYGDGYAYDHDVEGGVSGQNYFPDGMERRRFYEPKPVGAEAKVRERLEAWGKVRKDGKEGHHHHHH | soluble
MSLGNIKTLLENRFKKPTSDKMESLAKKRLEGELSPFLNGFTNPKLSSQEEAKFRQLLEEYSFSNEISKHDLQQLCHLSAQVKQIHHQAVLLHGERIKKVRELLTSYREGAFSAWLLLTYGNRQTPYNFLVYYELFSTLPDSLKLELEKLPRQAVYTLAAREGTQEKKEAIIRNYQGETKGELLEIIRKEFPLLPTDRRHTPLSQKAFTLLAKGTKLLRQCTDVSHEELIALEKLIKKLQKVTTNLLSNTKVSRNDNEIQNSRNEGHHHHHH | soluble
MSLGNREILYKNLFYNAELFTCRFPELSAALGLDSEIGIKQFAERIPESYYLEEAKLKETDKKIFTARINGKYLHSKYNPISEAEKNISLDFFEDKKAKSSCVFCGLGLGYAQELYAKKYPKSSLIIIEPDLFVFFLFLQSRPLDDFFMHENLILLLGLYPKDVLDFFESKSFFDTPIFKIQSLIDVSSSWFSEFEALKKRRNEKTNLNKNTLKKFGKLWLKNFLKNIKQTEGLFGINKIENIFASCPALIIAAGPGLDDTINLVKENEDKFIIIAADTAVRACHRHGLKPDFILLMDAQYWNYLHLSDLDISDSILITESSVYPAVFRLKTRAKFLCTSMFPLAQYIEKLIGEKGKLVTGGSVATACWDFARILGCSEIIFAGLDLAFPDFQTHFKGSRFEEDVNAFSNRFFPSETASHLSLYSASPQLKEGYEGKVLSDKRMQMYAWWFESKIAEFPDIKTYNLLPRGLKIPNMPALSMEEFLLKAKASPLSKKIKIEKMSALFNLSSYKKEGSFSSPNLSSALKELSTDLEKTMKLAREGMDICLNLLDSLKTGKPLEDSIIKKVWKTEGHHHHHH | soluble
MSLGPADGGGDLVGVAGRESWVQTVPYGMVVCPSGTFHMGQADEDVPATQINLNKQVTIGGFYMDETEITNNEYRQFMNVMLEDSVATLGEEYIMTELYPDTTVWVRDFSHHMGDPMMEYYYAHPAFDEYPVVGVDWWAAKYFCEWRTQHMNNWRAENGLWQMPRFRLPSEAEWEYAARGGRDMAKYPWGNPYIRNSKGCMLANFKPGRGNYYDDGFMYTSPVASYFSNDFGLYDMAGNISEWCEDAYYDAAVPIVWDLNPTYYNDDEVRKIIRGGSWKDIAYYLETGTRTFEYQDTSKSYIGFRTVMTYLGRSSGYEGHHHHHH | not soluble
MSLGQGIPANPADGAGEWGDYRDCDSPWKAVEDAVRAAARQHPDAAYVYYTGDIIDHGVWETTVAGNIVSMTRTYQLFRDVFGSKPVYNVLGNHENNPTNVFAPSYITQSEFSAKWLYDFSADQWSTWLPTASQQTIRQGGFYTVLVRPGFRIIGMNNNDAYTFNWWILYDPAYLQAQLQWVHDTLLQAEAAGEKVHILAHIPIGAGTSYRTWARQYRRILDRFWDVITAHFHGHTHADEFNVFYSLANPQHAISAGFNGGGTVPFSNYNPNYVVYYVNPQTYDVTDFESWYFSLTEANQNPNREGHHHHHH | not soluble
MSLGQHFLKDLKVAQDIADTVDTFPELPVLEVGPGMGVLTQFLVKKDRLVKVVEVDYESVAYLREAYPSLEDHIIEDDFLKMNLHRLFDGKPFVLTGNYPYNISSQIFFKMLENKDIIPCCTGMIQKEVAERIAAGPGSKTYGILSVLIQAWYKVEYLFTVSEHVFNPPPKVKSAVIRMTRNDTKELGCDEKLFKQVVKTTFNQRRKTLRNSIKPILGKDCPLTEDALFNKRPEQLSVEEFISLTNQVEEALKTATASEGHHHHHH | soluble
MSLGQKVVAMLDFLLAYSDYSKDFRPLIIDQPEDNLDNRYIYRHLVQQFRDVKAQRQIILATHNATIVTNSMTDQVVIMESDGVNGWIESQGYVSEKYIKNHIINQLEGGKDSFKHKMSIYETALSEGHHHHHH | not soluble
